In the supplement of paper PMC10567573:

B1: ZNF232 (parent)
chain: HSGEKPFICKECGKAYGWCSELIR

Variants of: B1
Test: protein stability index of a GFP-peptide fusion (GPS, HEK-293T) (PSI 1-6); higher = more stable
Details: c terminus: a fixed tail appended
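Note: lentivirally expressed fusions sorted by FACS into six bins by GFP to DsRed ratio, PSI derived from sequencing read proportions per bin multiplied by bin number.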

Protein stability index, by site and new letter:
C19: E 2.5, A 2.06, D 1.94
W18: A 1.85, C 2.18, M 2.57, K 1.78, S 2.67, V 2.25, N 2.03, P 1.81, I 2.46, E 2.95, H 2.28, F 1.55, R 1.9, Q 2.49, G 2.43, D 2.67, L 2.09, T 1.83, Y 1.79
C9: S 1.92, A 1.94, N 2.09, E 2.3, V 2.33, H 3.06, Q 2.48, L 2.25, Y 2.68, F 2.78, W 2.43, R 2.32, T 2.34, K 2.09, G 1.97, P 2.23, D 2.71, I 2.54, M 2.6
P6: F 1.66, D 2.68, I 1.83, W 1.69, K 2.91, Q 1.35, L 2.2, R 2.23, M 2.04, A 1.74, C 2.45, S 1.98, G 2.08, N 2.37, V 2.12, E 2.37, T 2.3, H 2.04, Y 1.74
A15: C 2.76, H 1.89, R 2.14, E 1.81, F 1.92, N 1.83, Y 1.85, K 1.69, I 2.34, V 2.01, M 1.9, P 2.29, D 1.69, L 1.49, G 1.45, Q 2.11, T 2.05, S 2.14, W 1.75
I8: W 1.69, L 1.75, C 2.46, A 1.7, E 2.22, M 2.38, S 2.28, D 2.07, N 2.58, K 2.09, G 2.01, P 1.81, F 1.51, V 1.58, H 1.79, R 1.44, Y 1.74, T 1.23, Q 2.02
G3: F 2.13, L 1.57, Y 1.88, W 1.86, M 2.49, E 2.29, S 2.14, C 2.5, N 2.07, D 2.32, P 2.22, T 2.07, R 1.61, K 1.99, A 1.86, V 2, Q 1.97, H 1.47, I 1.87
H1: T 1.82, R 2.45, W 1.81, S 2.33, Y 2.28, V 1.88, P 2.37, Q 2.32
G17: K 1.6, S 1.8, M 2.2, W 2.2, Y 2.24, I 2.51, T 1.56, Q 2.2, H 2.09, L 1.82, C 3.39, P 2.54, F 1.97, V 1.52, R 1.65, D 2.2, E 1.82, A 1.84, N 1.38
K10: D 1.66, I 2.01, C 1.7, M 1.96, L 1.92, P 2.07, W 1.84, S 2.09, Q 2.01, A 1.68, E 2.33, T 1.66, F 1.9, G 1.96, R 1.76, Y 1.99, V 1.82, N 1.82, H 1.75
E4: N 1.95, R 1.6, V 1.05, T 1.29, G 1.71, P 2.22, H 2.17, F 1.37, C 1.9, A 1.55, Y 1.81, I 1.27, M 1.46, Q 1.53, W 1.54, K 1.54, L 2.76, S 2.52, D 1.91
Y16: R 2.06, V 1.54, Q 2.33, D 2.16, F 1.6, C 2.5, W 2.1, L 1.25, H 3.04, E 1.75, A 1.58, S 1.99, G 1.93, I 2.06, N 1.88, K 2.11, M 1.94, T 2.49, P 1.61
F7: Q 2.08, V 1.89, P 2.11, R 2.12, N 2.24, C 1.73, G 2.52, D 2.29, E 2.7, W 2.09, K 2.54, M 2.1, Y 2.52, I 2.56, H 2.73, T 2, S 2.79, L 2.05, A 2.22
K14: Q 1.87, M 1.96, I 2.04, F 2.02, H 1.61, D 2.01, A 2.39, N 1.67, G 2.8, R 1.61, E 1.61, L 1.44, V 1.71, T 2.24, S 1.7, C 2.73, Y 1.98, W 2.68, P 1.53
C12: S 2.42, M 2.81, R 1.79, K 2.33, Y 2.15, T 2.21, Q 1.88, I 2.5, F 2.38, H 1.43, N 2.72, V 2.79, E 2.64, P 1.81, L 3.03, G 2.15, W 2.18, D 2.44, A 1.85
K5: Q 2.12, V 2.08, N 2.23, T 1.86, C 1.8, P 2.63, S 2.21, M 2.05, Y 1.74, E 3.4, A 2.1, R 2.57, H 1.84, L 1.65, W 1.96, D 2.17, F 1.65, I 2.21, G 2.38
S2: I 2.21, P 2.33, L 2.4, Q 2.04, V 1.84, W 1.68, D 2.51, F 2.87, M 2.07, A 1.7, G 2.12, K 1.74, T 1.76, H 1.91, Y 1.81, R 1.64, N 2.58, E 2.35, C 2.12
G13: Q 1.44, A 2.29, S 1.88, V 2.39, C 2.22, P 1.65, W 1.53, F 1.49, I 1.76, M 1.89, T 1.65, D 1.97, N 2.1, H 1.77, L 1.49, Y 2.12, K 1.42, E 2.14, R 1.7
E11: N 1.61, R 2.65, I 2.27, H 2.24, D 1.88, A 2.22, V 2.04, Q 1.52, M 2.02, T 2.48, P 1.58, S 2.31, Y 1.98, C 2.3, L 1.7, W 2.14, K 1.62, G 2.19, F 1.77
